Measured values taken from publication PMC8669397, “Cryo-EM structure of MukBEF reveals DNA loop entrapment at chromosomal unloading sites” (Molecular Cell, 2021).

B1: P. thracensis MukE (natural protein, Photorhabdus thracensis)
chain: MSSTHIEQFMPVKLAQALANSLFPELDSQLRAGRHIGIDDLDNHAFLMDFQEQLEEFYARYNVELIRAPEGFFYLRPRSTTLIPRSVLSELDMMVGKILCYLYLSPERLANQGIFTSQELYEELISLADEGKLMKFVNQRSSGSDLDKQKLQEKVRTTLNRLRRLGMVYFLPNNNNKFTITEAVFRFGADVRSGDDPREIQLRMIRDGEAMPVEGSLSLDDSENDETPDNSAEGAGDEQP
notes: MukE, KITE subunit of MukBEF, Photorhabdus thracensis; also called KITE protein MukE; source: E. coli BL21-Gold(DE3), co-expressed with MukB and MukF (pFB403) or with MukF (pFB486); co-purified with MukB
B2: P. thracensis MatP (natural protein, Photorhabdus thracensis)
chain: MKYQQLENLECGWKWAYLIRKHQEGEPITKYIENSAAHAAVDKLIKLESEPVRVLEWIEQHMNPDLFNRMKQTIRARRKRHFNAEHQHTRKKSIDLDFPVWHRLSALSQRRGNTLSETIVQLIEDAERKEKYANQMSSLKHDLEAILGKNE
notes: cloned without tag; the C-terminal tetramerization tail is not visible; also called MatP2; source: E. coli BL21-Gold(DE3), pFB469, purified (HisTrap, Q flowthrough, SP)

Tests used:
Experiment in all cases: cryo-EM structure; MukB^EQ2E4F2–AcpP2 and MukB^EQ2–AcpP2 at 10 μM each, 80-bp matS DNA and MatP2; buffer H30 with 1 mM ATP, 2 mM MgCl2, 0.05% β-octyl glucoside; MatP/DNA/ATP-bound and apo particles from the same sample
[1] = molecular target: the molecule itself
[2] = molecular target: T1, P. thracensis MukB(E1407Q) (Photorhabdus thracensis, UniProt A0A0F7LRY2 1-1482, E1407Q); details: both partners purified
T1 construct: MukB, SMC subunit of MukBEF, Photorhabdus thracensis, with E1407Q (slows ATP hydrolysis); Two copies in each MukBEF monomer (kappa-MukB and nu-MukB); also called MukB^EQ; kappa-MukB; source: E. coli BL21-Gold(DE3), pFB485, produced at 22°C; purified alone or with MukEF after mixing of cell pellets (Ni-NTA, hSENP1 elution, Q, Superose 6); not shown: His6-SUMO, N-terminal, cleaved

P. thracensis MukE = molecular target: B1; details: both partners purified

Row | Binder | binding result [1] | binding result [2] | binding result (P. thracensis MukE)
1 | B1 | binds |  | 
2 | B2 | binds | binds | binds
